B1: GST-mTfR1 (GST-fused recombinant protein of the partial sequence 321-329 of mouse transferrin receptor 1) (other, not shown: a dimerising Fc or GST)
chain: TQFPPSQSS
B2: MBP-VP1 GH loop (fused recombinant protein of VP1 GH loop and MBP) (other)
chain: ALGDSLYGAASLN
B3: MBP-VP1C terminal region (fused recombinant protein of VP1C terminal region and MBP) (other)
chain: STKDLTTY
B4: MBP-VP1 GH strand II (fused recombinant protein of VP1 GH strand II and MBP) (other)
chain: SKVPLKDQSAALGDSLYGAASLNDFGILAVRVV

Holding throughout (assay): amylose resin pull-down, western blotting with anti-GST antibody
Background: A western blot detects proteins with antibodies after separation by electrophoresis.

Test [1] has as its target MBP-VP1 GH strand I (fused recombinant protein of VP1 GH strand I and MBP) (poliovirus).
In test [2] the target is MBP-VP1BC loop (fused recombinant protein of VP1BC loop and MBP) (poliovirus).
In test [3] the target is B1.

Take B1: the binding result in test [1] and in test [2] was “binds” in each case. As to B2, the binding result in test [3] was “binds”.

In the case of B3, the binding result in test [3] is recorded as “binds”.

As for B4, the binding result in test [3] is “binds”.

The values above are taken from patent publication US20130337050A1 (IMMUNOFUTURE, published 2013).
